As a reminder, the pKd is −log10 of the Kd, conventionally taken in molar units.

Where a chain is given by its changes, count along the chain named.

In publication PMC9482650, “Quantitative fragmentomics allow affinity mapping of interactomes” (Nature Communications, 2022) one finds pKd data, which are given here for four molecules.

Common to all, as to experiment: holdup assay
What all share (parameters): key: below the threshold = too weak to quantify, mostly under pKd 3.1 to 4

Assay [1] deals with T1, FRMPD1, Q5SYB0.
T1 sequence (Q5SYB0 52-145, limits assumed, looked up): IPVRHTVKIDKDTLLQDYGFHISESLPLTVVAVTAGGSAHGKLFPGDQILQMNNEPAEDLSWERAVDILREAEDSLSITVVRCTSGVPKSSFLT

Assay [2] concerns the target NHERF4_2, Q86UT5.
Assay [3] addresses T2, CARD11, Q9BXL7.
T2 sequence (Q9BXL7 662-765, limits assumed, looked up): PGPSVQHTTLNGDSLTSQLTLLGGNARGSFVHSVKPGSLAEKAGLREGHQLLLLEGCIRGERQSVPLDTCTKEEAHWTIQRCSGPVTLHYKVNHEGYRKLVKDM

Assay [4] addresses T3, MPP6, Q9NZW5.
T3 sequence (Q9NZW5 125-219, limits assumed, looked up): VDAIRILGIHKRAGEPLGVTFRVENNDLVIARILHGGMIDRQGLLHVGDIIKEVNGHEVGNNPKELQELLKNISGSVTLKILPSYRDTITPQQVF

For assay [5], the target named is LAP2, Q96RT1.
Assay [6] deals with LIMK2, P53671.
For assay [7], the target named is T4, MPDZ_10, O75970.
T4 sequence (O75970 1624-1722, limits assumed, looked up): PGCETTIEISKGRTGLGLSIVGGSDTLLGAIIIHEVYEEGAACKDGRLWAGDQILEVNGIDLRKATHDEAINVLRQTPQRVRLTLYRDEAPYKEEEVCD

For assay [8], the target named is T5, PDZD2_2, O15018.
T5 sequence (O15018 329-429, limits assumed, looked up): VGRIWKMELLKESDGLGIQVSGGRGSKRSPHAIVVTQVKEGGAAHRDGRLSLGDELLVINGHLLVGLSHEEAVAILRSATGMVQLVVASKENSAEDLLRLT

The target in assay [9] is T6, NHERF3_3, Q5T2W1.
T6 sequence (Q5T2W1 238-333, limits assumed, looked up): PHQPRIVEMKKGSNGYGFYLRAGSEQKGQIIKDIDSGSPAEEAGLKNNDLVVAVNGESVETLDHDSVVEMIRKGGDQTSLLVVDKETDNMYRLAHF

The target of assay [10] is FRMPD2_1, Q68DX3.
Assay [11] has as its target Inadl_3, Q8NI35.
The target of assay [12] is NHERF4_4, Q86UT5.
Assay [13] deals with T7, APBA1_2, Q02410.
T7 sequence (Q02410 742-832, limits assumed, looked up): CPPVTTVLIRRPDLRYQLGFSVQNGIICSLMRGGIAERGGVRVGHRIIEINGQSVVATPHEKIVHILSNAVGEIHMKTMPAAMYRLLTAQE

Assay [14] deals with DLG4_2, P78352.
Assay [15] concerns the target T8, DFNB31_2, Q9P202.
T8 sequence (Q9P202 274-371, limits assumed, looked up): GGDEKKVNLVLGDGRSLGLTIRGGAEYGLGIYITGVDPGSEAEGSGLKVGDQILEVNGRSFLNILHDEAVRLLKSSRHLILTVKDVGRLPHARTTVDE

Assay [16] deals with T9, TX1BP3, O14907.
T9 sequence (O14907 10-122, limits assumed, looked up): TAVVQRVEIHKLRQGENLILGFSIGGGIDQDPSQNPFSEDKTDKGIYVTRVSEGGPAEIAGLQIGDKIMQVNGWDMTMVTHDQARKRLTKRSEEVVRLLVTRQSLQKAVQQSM

Assay [17] deals with T10, APBA2_2, Q99767.
T10 sequence (Q99767 654-744, limits assumed, looked up): T7 sequence (Q02410 742-832, limits assumed, looked up) with R10K, R15K, P59A, H65Q, I66A, A70S, Y84F, A89G

For assay [18], the target named is IL16_1, Q14005.
For assay [19], the target named is T11, SHANK1, Q9Y566.
T11 sequence (Q9Y566 658-767, limits assumed, looked up): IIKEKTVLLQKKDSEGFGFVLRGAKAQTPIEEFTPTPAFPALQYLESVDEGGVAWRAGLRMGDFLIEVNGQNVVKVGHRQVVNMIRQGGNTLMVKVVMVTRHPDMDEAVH

The target in assay [20] is LNX1_3, Q8TBB1.
Assay [21] concerns the target T12, MPP7, Q5T2T1.
T12 sequence (Q5T2T1 134-230, limits assumed, looked up): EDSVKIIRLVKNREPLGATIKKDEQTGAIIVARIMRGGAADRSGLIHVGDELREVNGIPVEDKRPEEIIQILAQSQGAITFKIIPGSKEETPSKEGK

In assay [22] the target is T13, NHERF3_4, Q5T2W1.
T13 sequence (Q5T2W1 373-468, limits assumed, looked up): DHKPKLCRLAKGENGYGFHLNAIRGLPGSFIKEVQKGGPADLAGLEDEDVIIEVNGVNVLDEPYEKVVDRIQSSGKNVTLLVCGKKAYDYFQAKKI

Assay [23] concerns the target T14, LNX2_3, Q8N448.
T14 sequence (Q8N448 463-564, limits assumed, looked up): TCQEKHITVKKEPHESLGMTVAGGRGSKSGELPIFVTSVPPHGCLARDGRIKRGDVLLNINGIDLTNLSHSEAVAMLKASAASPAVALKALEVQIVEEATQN

[24] abbreviates: plain residues with an end cap or a label only (N-terminal biotin on a linker: ado-ado).
[25] abbreviates: plain residues with an end cap or a label only (N-terminal biotin on a linker: ttds).
The mark [26] stands for this setting: plain residues with an end cap or a label only (N-terminal biotin on a linker: gsgsgs; C-terminal amide).

FRMPD2_1, Q68DX3, sequence (Q68DX3 770-861): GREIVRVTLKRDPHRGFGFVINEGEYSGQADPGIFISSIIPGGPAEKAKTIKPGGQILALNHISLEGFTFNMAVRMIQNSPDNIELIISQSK
NHERF4_4, Q86UT5, sequence (Q86UT5 464-550): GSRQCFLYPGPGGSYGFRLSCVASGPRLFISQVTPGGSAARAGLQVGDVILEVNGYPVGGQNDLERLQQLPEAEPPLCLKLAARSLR
Inadl_3, Q8NI35, sequence (Q8NI35 359-469): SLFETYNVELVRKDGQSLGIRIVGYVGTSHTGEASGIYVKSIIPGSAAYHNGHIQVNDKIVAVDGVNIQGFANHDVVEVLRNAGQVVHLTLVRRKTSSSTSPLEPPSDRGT
LNX1_3, Q8TBB1, sequence (Q8TBB1 500-596): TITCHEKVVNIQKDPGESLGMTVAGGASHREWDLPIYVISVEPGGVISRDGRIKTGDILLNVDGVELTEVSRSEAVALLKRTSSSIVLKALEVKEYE
LAP2, Q96RT1, sequence (Q96RT1 other isoform, or with tags, fused parts or gaps): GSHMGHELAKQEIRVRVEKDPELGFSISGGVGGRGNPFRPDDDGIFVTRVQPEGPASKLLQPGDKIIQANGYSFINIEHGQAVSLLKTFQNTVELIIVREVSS
NHERF4_2, Q86UT5, sequence (Q86UT5 220-308): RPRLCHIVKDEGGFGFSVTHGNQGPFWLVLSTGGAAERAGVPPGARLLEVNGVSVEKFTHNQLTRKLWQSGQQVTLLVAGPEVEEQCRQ
DLG4_2, P78352, sequence (P78352 155-259): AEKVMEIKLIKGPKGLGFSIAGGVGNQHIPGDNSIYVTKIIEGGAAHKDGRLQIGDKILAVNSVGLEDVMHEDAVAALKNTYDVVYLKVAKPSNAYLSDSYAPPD
LIMK2, P53671, sequence (P53671 143-248): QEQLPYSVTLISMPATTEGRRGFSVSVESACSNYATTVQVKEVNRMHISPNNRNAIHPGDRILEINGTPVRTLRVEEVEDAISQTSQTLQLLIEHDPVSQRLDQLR
IL16_1, Q14005, sequence (Q14005 210-306): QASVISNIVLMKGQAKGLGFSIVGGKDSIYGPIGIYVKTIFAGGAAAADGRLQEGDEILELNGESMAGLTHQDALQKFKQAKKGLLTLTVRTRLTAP

For the molecule LHLHGTGIQV [EPHA7, Q15375], the pKd result in assay [1] (setting [24]) was “below the threshold”; in assay [2] (setting [24]), 3.54; in assay [3] (setting [24]) it was “below the threshold”; in assay [4] (setting [24]) it was 3.88; in [5] (setting [24]), 3.63; in [6] (setting [24]), “below the threshold”. In addition, the pKd result is “below the threshold” in assay [7] (setting [24]); “below the threshold” in [8] (setting [24]); “below the threshold” in assay [9] (setting [24]); 5.03 in assay [10] (setting [24]); 3.55 in [11] (setting [24]); 4.07 in assay [12] (setting [24]). The pKd is 4.22 in assay [13] (setting [24]); 3.75 in assay [14] (setting [24]); “below the threshold” in assay [15] (setting [24]); 4.12 in assay [16] (setting [24]); “below the threshold” in [17] (setting [24]); “below the threshold” in assay [18] (setting [24]). The pKd result was “below the threshold” in assay [19] (setting [24]); 3.48 in assay [20] (setting [24]); “below the threshold” in [21] (setting [24]); 3.81 in [22] (setting [24]); 3.47 in [23] (setting [24]).
Consider GGPKEEESPV [SLC16A1, P53985], for which the pKd entry in assay [1] (setting [25]), in assay [2] (setting [25]), in [3] (setting [25]), in assay [4] (setting [25]), in [5] (setting [25]) and in assay [6] (setting [25]) was “below the threshold” each time. Besides, the pKd result in assay [7] (setting [25]) is “below the threshold”; in assay [8] (setting [25]) it was 4.75; in assay [9] (setting [25]), “below the threshold”; in assay [10] (setting [25]), “below the threshold”; in assay [11] (setting [25]), “below the threshold”; in assay [12] (setting [25]), “below the threshold”. For the same molecule, the pKd entry in [13] (setting [25]) was “below the threshold”; in [14] (setting [25]) it was 3.5; in [15] (setting [25]) it was “below the threshold”; in assay [16] (setting [25]) it was “below the threshold”; in [17] (setting [25]), “below the threshold”; in assay [18] (setting [25]), 4.26. The pKd entry in assay [19] (setting [25]), in assay [20] (setting [25]), in assay [21] (setting [25]), in assay [22] (setting [25]) and in assay [23] (setting [25]) was “below the threshold” in each case.
Turning to EEPEERHTEL [CES2, O00748], the pKd result in [1] (setting [24]), in assay [2] (setting [24]), in assay [3] (setting [24]), in assay [4] (setting [24]), in [5] (setting [24]) and in [6] (setting [24]) was “below the threshold” throughout. The pKd entry in [7] (setting [24]) is “below the threshold”; in assay [8] (setting [24]), 5.04; in assay [9] (setting [24]), “below the threshold”; in assay [10] (setting [24]), “below the threshold”; in assay [11] (setting [24]) it was “below the threshold”; in assay [12] (setting [24]), “below the threshold”. Moreover, the pKd is 3.5 in assay [13] (setting [24]); 4 in assay [14] (setting [24]); “below the threshold” in assay [15] (setting [24]); “below the threshold” in assay [16] (setting [24]); “below the threshold” in assay [17] (setting [24]); “below the threshold” in assay [18] (setting [24]). In addition, the pKd in [19] (setting [24]) was 4.55; in assay [20] (setting [24]), “below the threshold”; in [21] (setting [24]), 3.79; in assay [22] (setting [24]) it was 4.48; in assay [23] (setting [24]), “below the threshold”.
As for ELIQDTSTSFSTTREW [ARAP3_int, Q8WWN8], the pKd entry in assay [1] (setting [26]) is “below the threshold”; in assay [2] (setting [26]), “below the threshold”; in assay [3] (setting [26]), “below the threshold”; in assay [4] (setting [26]) it was 3.69; in assay [5] (setting [26]) it was “below the threshold”; in assay [6] (setting [26]) it was “below the threshold”. Moreover, the pKd entry is “below the threshold” in assay [7] (setting [26]); “below the threshold” in [8] (setting [26]); “below the threshold” in assay [9] (setting [26]); “below the threshold” in [10] (setting [26]); “below the threshold” in assay [11] (setting [26]); 3.55 in assay [12] (setting [26]). Moreover, the pKd entry in [13] (setting [26]) was “below the threshold”; in [14] (setting [26]), “below the threshold”; in assay [15] (setting [26]) it was “below the threshold”; in assay [16] (setting [26]), 3.92; in assay [17] (setting [26]) it was “below the threshold”; in assay [18] (setting [26]), “below the threshold”. Moreover, the pKd in assay [19] (setting [26]) was 4.4; in assay [20] (setting [26]), “below the threshold”; in assay [21] (setting [26]), “below the threshold”; in assay [22] (setting [26]), “below the threshold”; in assay [23] (setting [26]), “below the threshold”.
